# Patent US20240368668A1, “SUBSTRATES AND BIOMARKERS OF ADAMTS7” (The Broad Institute, Inc., priority 2021, published 2024)
# Square brackets hold non-standard residues; d marks the D form. Ends that are not written are not given here. pGlu = O=C1CC[C@@H](C(=O)O)N1
# Target: T1, mouse ADAMTS7 (Mus musculus, UniProt Q68SA9, E373Q)
# T1 construct: Full-length mouse Adamts7 1-1857 (Uniprot Q68SA9, WT or E373Q catalytic mutant); expressed in transfected cells; host or cells: Human Coronary Artery Smooth Muscle Cells (HCA-SMC, Lonza), adenovirus 50 MOI
# T1 sequence (Q68SA9 221-1657 E373Q): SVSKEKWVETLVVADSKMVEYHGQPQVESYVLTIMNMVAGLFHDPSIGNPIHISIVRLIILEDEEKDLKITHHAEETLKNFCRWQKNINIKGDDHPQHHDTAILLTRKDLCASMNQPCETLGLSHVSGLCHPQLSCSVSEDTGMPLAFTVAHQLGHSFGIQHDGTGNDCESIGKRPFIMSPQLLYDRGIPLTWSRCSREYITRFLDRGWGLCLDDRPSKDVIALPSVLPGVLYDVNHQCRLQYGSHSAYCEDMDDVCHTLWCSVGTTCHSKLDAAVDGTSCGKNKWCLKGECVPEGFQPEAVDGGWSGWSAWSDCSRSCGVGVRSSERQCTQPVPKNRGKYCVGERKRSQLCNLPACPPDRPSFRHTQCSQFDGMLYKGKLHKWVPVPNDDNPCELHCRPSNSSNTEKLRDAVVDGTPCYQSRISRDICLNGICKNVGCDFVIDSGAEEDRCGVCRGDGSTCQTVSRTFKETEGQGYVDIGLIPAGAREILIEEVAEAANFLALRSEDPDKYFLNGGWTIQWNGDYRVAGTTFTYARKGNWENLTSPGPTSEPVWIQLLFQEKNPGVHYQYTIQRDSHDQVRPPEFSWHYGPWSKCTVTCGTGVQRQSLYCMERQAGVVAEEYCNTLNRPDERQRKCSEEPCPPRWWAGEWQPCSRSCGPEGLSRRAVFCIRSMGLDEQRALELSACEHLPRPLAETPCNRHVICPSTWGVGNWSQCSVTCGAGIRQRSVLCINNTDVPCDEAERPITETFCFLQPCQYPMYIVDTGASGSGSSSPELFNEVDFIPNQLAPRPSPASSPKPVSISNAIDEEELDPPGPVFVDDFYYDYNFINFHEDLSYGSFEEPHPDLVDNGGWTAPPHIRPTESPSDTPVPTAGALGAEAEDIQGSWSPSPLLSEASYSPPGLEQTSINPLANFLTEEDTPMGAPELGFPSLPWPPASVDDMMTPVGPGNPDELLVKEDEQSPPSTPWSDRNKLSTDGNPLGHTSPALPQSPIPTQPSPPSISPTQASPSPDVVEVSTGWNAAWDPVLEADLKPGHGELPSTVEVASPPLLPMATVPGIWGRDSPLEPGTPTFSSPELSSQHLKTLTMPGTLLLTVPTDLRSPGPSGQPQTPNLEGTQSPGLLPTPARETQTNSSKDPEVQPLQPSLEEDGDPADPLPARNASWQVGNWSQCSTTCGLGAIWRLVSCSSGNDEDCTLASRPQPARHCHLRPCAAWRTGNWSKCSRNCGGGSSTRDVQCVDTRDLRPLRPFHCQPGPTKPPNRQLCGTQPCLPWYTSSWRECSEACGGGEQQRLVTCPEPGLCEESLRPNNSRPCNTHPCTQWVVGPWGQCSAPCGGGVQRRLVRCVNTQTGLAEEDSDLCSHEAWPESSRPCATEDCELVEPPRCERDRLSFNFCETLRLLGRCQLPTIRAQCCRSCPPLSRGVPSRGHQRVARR
# Test: TMT10 TAILS N-terminomics, SMC1 experiment (Ad-mADAMTS7 WT vs EQ vs Luc, technical replicates, trypsin digest)
# Assay type: cell-based
# Conditions: TAILS neo-N-terminal peptide abundance; log fold change, Ad-mADAMTS7 EQ over Luc
# Excerpt: ADAMTS7 Expression, Cell Culture and Preparation of the Secreted Proteins—Full-length mouse Adamts7 1-1857 (Uniprot Q68SA9, WT or E373Q catalytic mutant) with a carboxyl terminal 3xFLAG tag was used to generate custom adenoviruses as previously described. Adeno-CMV-Luciferase (Ad-Luc) from Vector Biolabs was used as a negative control. Human Coronary Artery Smooth Muscle Cells (HCA-SMC) were obtained from Lonza and expanded in Lonza SmGM-2 media in 15 cm tissue culture plates. Twenty-four hours before media collection, near confluent plates were transduced with 50 MOI adenovirus and switched to Lonza Basal SM media with volumes of 20 ml per 15 cm plate. Expression of the Flag tagged ADAMTS7 was confirmed from the media using western blot and detected using the anti-Flag M2-HRP antibody (Sigma, A8592). Collected media was processed by adding protease inhibitors (1 mM EDTA and 1 mM PMSF) and clarified by 500 g×5 min spin at 4 C to pellet cell debris. Cell media supernatants were then passed through a 0.22 um filter and kept chilled. Processed media was then concentrated 50-100× using 3 kDa Centricon Plus-70 filter unit, spun at 3,500 g×60 min at 4 C. Approximately 10% of the processed, concentrated media was set aside for total secretome proteolytic analysis. The remaining 90% of the processed, concentrated media was buffer exchanged into 50 mM HEPES pH 8.0, 150 mM NaCl (2×50 ml) using the 3 kDa Centricon Plus-70 filter unit and concentrated to >2 mg/ml to serve as input for the TAILS experiment. Secretome and TAILS input samples were stored at −80° C.
# For the first experiment, referred to as SMC1, 120 ml of media from 6×15 cm dishes was pooled from each condition (Luc, WT, EQ) and processed to produce three separate inputs for the TAILS experiment. Luc, WT and EQ inputs from the SMC1 experiment were each divided into triplicate 400 ug samples to generate technical replicate TAILS data. For the second experiment, referred to as SMC2, media was processed separately in triplicate for each condition (Luc1, Luc2, Luc3, WT1, WT2, WT3, EQ1, EQ2, EQ3) using 60 ml of media from 3×15 cm dishes for each process replicate. Inputs from the SMC2 experiment used process replicates of 300 ug each to generate TAILS data. The third experiment used input from cultured Human umbilical vein endothelial cells (HUVEC) from Lifeline Cell Technology grown in VascuLife Media and transduced in Lifeline Basal EC (+bFGF2 10 ng/ml). The HUVEC experiment used the same strategy as the SMC2 experiment, with 40 ml of media from 2×15 cm dishes for each process replicate and used 200 ug each to generate TAILS data. Inputs for process replicate experiments were restricted to the lowest concentration from the 9 parallel samples for SMC2 or HUVEC.
# TMT10 isotopic labeling and negative selection of non-labeled peptides-Sample preparation was performed based on the TAILS protocol from the Overall lab with some modifications. From a single experiment, nine parallel protein samples in 50 mM HEPES pH 8.0, 150 mM NaCl were separately denatured with guanidinium chloride (Sigma, G4505) to reach a final concentration of 2.5M guanidinium chloride and 250 mM HEPES and incubated at 65° C. for 15 min. Reduction was achieved through addition of tris(2-carboxylethyl) phosphine (TCEP) at a final concentration of […] and incubated at 65° C. for 45 min. Alkylation reaction was performed with addition of iodoacetamide (IAA, Sigma, A3221) to a final concentration of 10 mM IAA for 15 min at room temperature in the dark. Following denaturation, reduction and alkylation steps, ten percent of each of the nine parallel protein samples was removed and combined to serve as a pooled reference. Isobaric tags were added to free amine groups using the TMT10plex Isobaric Mass Tagging Kit (ThermoFisher, 90113) with TMT channels randomly assigned to the nine samples and TMT 131 assigned to the pooled reference. […]
row,logFC.mEQ.over.Luc,Substance
1,−0.08,ACTB_21 (FAGDDAPR; listed as Homo sapiens)
2,−0.12,ACTB_105 (LTEAPLNPKANR; listed as Homo sapiens)
3,−0.10,ADAM9_69 (VIQAEGKEHIIHLER; listed as Homo sapiens)
4,−0.18,AEBP1_37 (FLEGFLSELEPEPR; listed as Homo sapiens)
5,0.27,APLP2_579 (ISETPVDVR; listed as Homo sapiens)
6,0.14,CCDC80_66 (LEEPNLQPLQR; listed as Homo sapiens)
7,0.28,ECM1_134 (FGDQSHPEPESWNAAQHCQQDR; listed as Homo sapiens)
8,−0.59,EFEMP1_124 (AVAGPEMQTGR; listed as Homo sapiens)
9,−0.33,EFEMP1_125 (VAGPEMQTGR; listed as Homo sapiens)
10,−0.09,EFHD2_67 (QGIGEPQSPSR; listed as Homo sapiens)
11,−0.22,EHBP1L1_298 (TAPTPAPR; listed as Homo sapiens)
12,−0.01,FBLN2_259 (ALGPPAPVQAKAR; listed as Homo sapiens)
13,−0.74,FBLN2_260 (LGPPAPVQAKAR; listed as Homo sapiens)
14,0.21,FBN1_29 (LEAGNVKETR; listed as Homo sapiens)
15,−0.04,FBN1_53 (LKGPNVCGSR; listed as Homo sapiens)
16,0.19,FLNA_612 (SVEGPSQAKIECDDKGDGSCDVR; listed as Homo sapiens)
17,−0.25,FLNA_695 (FTVDAKHGGKAPLR; listed as Homo sapiens)
18,−0.11,FLNA_1285 (LTQTGGPHVKAR; listed as Homo sapiens)
19,0.39,FN1_36 (MVQPQSPVAVSQSKPGCYDNGKHYQINQQWER; listed as Homo sapiens)
20,−0.40,FN1_40 (QSPVAVSQSKPGCYDNGKHYQINQQWER; listed as Homo sapiens)
21,0.49,FN1_45 (VSQSKPGCYDNGKHYQINQQWER; listed as Homo sapiens)
22,0.19,FN1_47 ([code q]SKPGCYD[code n]GKHYQINQQWER; not fully specified; listed as Homo sapiens)
23,0.56,FN1_281 (SGSGPFTDVR; listed as Homo sapiens)
24,−0.15,FN1_282 (GSGPFTDVR; listed as Homo sapiens)

row,logFC.mEQ.over.Luc,Substance
1,0.49,FN1_886 (NQESTPVVIQQETTGTPR; listed as Homo sapiens)
2,0.00,FN1_1143 (LTPGVEYVYTIQVLR; listed as Homo sapiens)
3,−0.08,FN1_1656 (SSSPVTGYR; listed as Homo sapiens)
4,−0.11,FN1_1731 (FTDVDVDSIKIAWESPQGQVSR; listed as Homo sapiens)
5,−0.13,FN1_2143 (FEEHGFR; listed as Homo sapiens)
6,0.14,FN1_2217 (FQDTSEYIISCHPVGTDEEPLQFR; listed as Homo sapiens)
7,−0.43,GALNT2_31 (LAGGAGGGAGR; listed as Homo sapiens)
8,0.05,GSN_35 (SQAGAPQGR; listed as Homo sapiens)
9,−0.20,GSN_413 (HIANVER; listed as Homo sapiens)
10,0.51,HEG1_49 (GAGLELQLER; listed as Homo sapiens)
11,0.35,HLA−C_52 (VDDTQFVR; listed as Homo sapiens)
12,0.38,HSPG2_275 (LLPGSVR; listed as Homo sapiens)
13,−0.15,HSPG2_1937 (SSAGQQVAR; listed as Homo sapiens)
14,0.03,HSPG2_2331 (ANLAYPAGSTQPIR; listed as Homo sapiens)
15,0.01,HSPG2_2333 (LAYPAGSTQPIR; listed as Homo sapiens)
16,0.14,HSPG2_2688 (VADSGEYVCR; listed as Homo sapiens)
17,0.00,HSPG2_3250 (SPLPWQHR; listed as Homo sapiens)
18,−0.07,HSPG2_3542 (IAHVELADAGQYR; listed as Homo sapiens)
19,−0.26,HSPG2_3647 ([pGlu]GKVKAFAHLQVPER; listed as Homo sapiens)
20,0.06,HSPG2_3672 (SFLPLPTIKDAYR; listed as Homo sapiens)
21,−0.28,HSPG2_3813 (SSGFIGCVR; listed as Homo sapiens)
22,−0.37,HSPG2_4004 (SAEPLALGR; listed as Homo sapiens)
23,−0.02,HSPG2_4021 (LNKDGSLR; listed as Homo sapiens)
24,0.02,HSPG2_4075 (GCVGEVSVNGKR; listed as Homo sapiens)
